Laboratory results as given in paper PMC8113721, “The lysosomal protein ABCD4 can transport vitamin B12 across liposomal membranes in vitro” (The Journal of Biological Chemistry, 2021).

B2: His-tagged human ABCD4 (natural protein)
chain: AVAGPAPGAGARPRLDLQFLQRFLQILKVLFPSWSSQNALMFLTLLCLTLLEQFVIYQVGLIPSQYYGVLGNKDLEGFKTLTFLAVMLIVLNSTLKSFDQFTCNLLYVSWRKDLTEHLHRLYFRGRAYYTLNVLRDDIDNPDQRISQDVERFCRQLSSMASKLIISPFTLVYYTYQCFQSTGWLGPVSIFGYFILGTVVNKTLMGPIVMKLVHQEKLEGDFRFKHMQIRVNAEPAAFYRAGHVEHMRTDRRLQRLLQTQRELMSKELWLYIGINTFDYLGSILSYVVIAIPIFSGVYGDLSPAELSTLVSKNAFVCIYLISCFTQLIDLSTTLSDVAGYTHRIGQLRETLLDMSLKSQDCEILGESEWGLDTPPGWPAAEPADTAFLLERVSISAPSSDKPLIKDLSLKISEGQSLLITGNTGTGKTSLLRVLGGLWTSTRGSVQMLTDFGPHGVLFLPQKPFFTDGTLREQVIYPLKEVYPDSGSADDERILRFLELAGLSNLVARTEGLDQQVDWNWYDVLSPGEMQRLSFARLFYLQPKYAVLDEATSALTEEVESELYRIGQQLGMTFISVGHRQSLEKFHSLVLKLCGGGRWELMRIKVE
notes: ABCD4 (ABC transporter subfamily D member 4), human; also called His-ABCD4; wildtype ABCD4; source: also reconstituted in liposomes

Assays:
His-tagged human ABCD4 = target: B2; assay: cross-linking; purified His-ABCD4 and LMBD1–GST mixed; SDA and m-maleimidobenzoyl-N-hydroxysuccinimide ester (2 mM each), UV irradiation; immunoblot; conditions: both partners purified
[1] = target: the molecule itself; assay: as above
[2] = target: the molecule itself; assay: SEC; purified His-ABCD4 solubilized in β-DDM; size exclusion chromatography, polydisperse profile with a ∼360 kDa major peak
[3] = target: the molecule itself; assay: not stated; mutant His-ABCD4 reconstituted in liposomes (Fig. S11B); the text does not name the method

B1: glutathione-S-transferase (GST)–tagged LMBD1 (natural protein, human, UniProt Q9NUN5 1-540, looked up)
chain: MATSGAASAELVIGWCIFGLLLLAILAFCWIYVRKYQSRRESEVVSTITAIFSLAIALITSALLPVDIFLVSYMKNQNGTFKDWANANVSRQIEDTVLYGYYTLYSVILFCVFFWIPFVYFYYEEKDDDDTSKCTQIKTALKYTLGFVVICALLLLVGAFVPLNVPNNKNSTEWEKVKSLFEELGSSHGLAALSFSISSLTLIGMLAAITYTAYGMSALPLNLIKGTRSAAYERLENTEDIEEVEQHIQTIKSKSKDGRPLPARDKRALKQFEERLRTLKKRERHLEFIENSWWTKFCGALRPLKIVWGIFFILVALLFVISLFLSNLDKALHSAGIDSGFIIFGANLSNPLNMLLPLLQTVFPLDYILITIIIMYFIFTSMAGIRNIGIWFFWIRLYKIRRGRTRPQALLFLCMILLLIVLHTSYMIYSLAPQYVMYGSQNYLIETNITSDNHKGNSTLSVPKRCDADAPEDQCTVTRTYLFLHKFWFFSAAYYFGNWAFLGVFLIGLIVSCCKGKKSVIEGVDEDSDISDDEPSVYSA
notes: LMBD1 (lysosomal membrane protein encoded by LMBRD1), human; GST itself can dimerise; the dimer seen by cross-linking is of the GST fusion; also called LMBD1–GST; source: also reconstituted in liposomes with His-ABCD4
His-tagged human ABCD4
  stoichiometry N: 1
[1]
  stoichiometry N: 2

## B2
[2]
  stoichiometry N: 2

B3: His-ABCD4 (N141K) (natural protein, human)
chain: AVAGPAPGAGARPRLDLQFLQRFLQILKVLFPSWSSQNALMFLTLLCLTLLEQFVIYQVGLIPSQYYGVLGNKDLEGFKTLTFLAVMLIVLNSTLKSFDQFTCNLLYVSWRKDLTEHLHRLYFRGRAYYTLNVLRDDIDKPDQRISQDVERFCRQLSSMASKLIISPFTLVYYTYQCFQSTGWLGPVSIFGYFILGTVVNKTLMGPIVMKLVHQEKLEGDFRFKHMQIRVNAEPAAFYRAGHVEHMRTDRRLQRLLQTQRELMSKELWLYIGINTFDYLGSILSYVVIAIPIFSGVYGDLSPAELSTLVSKNAFVCIYLISCFTQLIDLSTTLSDVAGYTHRIGQLRETLLDMSLKSQDCEILGESEWGLDTPPGWPAAEPADTAFLLERVSISAPSSDKPLIKDLSLKISEGQSLLITGNTGTGKTSLLRVLGGLWTSTRGSVQMLTDFGPHGVLFLPQKPFFTDGTLREQVIYPLKEVYPDSGSADDERILRFLELAGLSNLVARTEGLDQQVDWNWYDVLSPGEMQRLSFARLFYLQPKYAVLDEATSALTEEVESELYRIGQQLGMTFISVGHRQSLEKFHSLVLKLCGGGRWELMRIKVE
notes: ABCD4, human, with the clinical missense mutation N141K; N141K is a clinical mutation reported in cobalamin deficiency; source: K. phaffii, purified and reconstituted in liposomes using the same procedure as used for His-ABCD4
[3]
  stoichiometry N: 2

B4: His-ABCD4 (Y319C) (natural protein, human)
chain: AVAGPAPGAGARPRLDLQFLQRFLQILKVLFPSWSSQNALMFLTLLCLTLLEQFVIYQVGLIPSQYYGVLGNKDLEGFKTLTFLAVMLIVLNSTLKSFDQFTCNLLYVSWRKDLTEHLHRLYFRGRAYYTLNVLRDDIDNPDQRISQDVERFCRQLSSMASKLIISPFTLVYYTYQCFQSTGWLGPVSIFGYFILGTVVNKTLMGPIVMKLVHQEKLEGDFRFKHMQIRVNAEPAAFYRAGHVEHMRTDRRLQRLLQTQRELMSKELWLYIGINTFDYLGSILSYVVIAIPIFSGVYGDLSPAELSTLVSKNAFVCICLISCFTQLIDLSTTLSDVAGYTHRIGQLRETLLDMSLKSQDCEILGESEWGLDTPPGWPAAEPADTAFLLERVSISAPSSDKPLIKDLSLKISEGQSLLITGNTGTGKTSLLRVLGGLWTSTRGSVQMLTDFGPHGVLFLPQKPFFTDGTLREQVIYPLKEVYPDSGSADDERILRFLELAGLSNLVARTEGLDQQVDWNWYDVLSPGEMQRLSFARLFYLQPKYAVLDEATSALTEEVESELYRIGQQLGMTFISVGHRQSLEKFHSLVLKLCGGGRWELMRIKVE
notes: ABCD4, human, with the clinical missense mutation Y319C; Y319C is a clinical mutation reported in cobalamin deficiency; source: K. phaffii, purified and reconstituted in liposomes using the same procedure as used for His-ABCD4
[3]
  stoichiometry N: 2
